Key:
Assay in all cases: ELISA
DMP1 = target: T1, DMP1 (Homo sapiens (Human), UniProt Q13316 17-513)
T1 sequence: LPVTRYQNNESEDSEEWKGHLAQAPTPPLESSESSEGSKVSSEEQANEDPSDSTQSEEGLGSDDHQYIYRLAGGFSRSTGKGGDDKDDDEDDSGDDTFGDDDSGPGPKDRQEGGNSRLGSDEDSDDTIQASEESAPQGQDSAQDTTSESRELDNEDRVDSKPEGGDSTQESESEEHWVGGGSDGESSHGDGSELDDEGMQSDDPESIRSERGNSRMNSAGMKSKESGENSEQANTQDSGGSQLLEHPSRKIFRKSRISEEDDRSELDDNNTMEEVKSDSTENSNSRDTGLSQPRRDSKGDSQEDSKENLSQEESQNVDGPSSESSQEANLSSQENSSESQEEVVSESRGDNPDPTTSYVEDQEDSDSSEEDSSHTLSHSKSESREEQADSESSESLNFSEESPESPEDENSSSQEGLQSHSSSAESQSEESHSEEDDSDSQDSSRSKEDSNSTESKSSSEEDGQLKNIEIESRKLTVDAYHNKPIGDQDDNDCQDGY

TNFSF9 = TNFSF9 (Homo sapiens (Human), UniProt P41273 50-254)
Chain of TNFSF9 (P41273 50-254 limits assumed): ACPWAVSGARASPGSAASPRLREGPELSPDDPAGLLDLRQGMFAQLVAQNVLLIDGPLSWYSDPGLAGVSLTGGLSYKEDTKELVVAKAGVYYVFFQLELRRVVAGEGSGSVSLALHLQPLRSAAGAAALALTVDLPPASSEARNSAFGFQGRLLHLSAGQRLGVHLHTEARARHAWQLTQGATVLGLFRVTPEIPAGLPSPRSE

TNFSF8 = target: T2, TNFSF8 (Homo sapiens (Human), UniProt P32971 63-234)
T2 sequence: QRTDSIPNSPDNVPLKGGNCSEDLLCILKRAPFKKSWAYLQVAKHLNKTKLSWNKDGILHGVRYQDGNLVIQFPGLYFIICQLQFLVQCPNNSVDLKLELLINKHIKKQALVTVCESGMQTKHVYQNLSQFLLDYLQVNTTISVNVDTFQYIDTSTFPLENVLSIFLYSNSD

TMED1 = target: T3, TMED1 (Homo sapiens (Human), UniProt Q13445 24-194)
T3 sequence: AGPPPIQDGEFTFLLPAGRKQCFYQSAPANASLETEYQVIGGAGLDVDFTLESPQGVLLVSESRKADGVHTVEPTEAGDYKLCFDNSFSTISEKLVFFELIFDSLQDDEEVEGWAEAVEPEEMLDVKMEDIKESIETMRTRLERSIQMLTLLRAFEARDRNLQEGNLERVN

SOST = target: T4, SOST (Homo sapiens (Human), UniProt Q9BQB4 24-213)
T4 sequence: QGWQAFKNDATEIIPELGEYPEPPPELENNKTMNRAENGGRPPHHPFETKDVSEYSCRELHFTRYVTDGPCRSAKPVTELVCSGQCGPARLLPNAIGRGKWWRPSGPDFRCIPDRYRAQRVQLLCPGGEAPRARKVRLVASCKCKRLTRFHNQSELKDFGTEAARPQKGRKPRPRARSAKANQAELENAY

NBL1 = target: T5, NBL1 (Homo sapiens (Human), UniProt P41271 17-181)
T5 sequence: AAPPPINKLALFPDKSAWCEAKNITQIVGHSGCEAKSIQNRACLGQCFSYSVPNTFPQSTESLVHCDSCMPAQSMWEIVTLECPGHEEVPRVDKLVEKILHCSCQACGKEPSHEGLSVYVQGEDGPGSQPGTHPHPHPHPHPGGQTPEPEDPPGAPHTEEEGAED

OPTC = target: T6, OPTC (Homo sapiens (Human), UniProt Q9UBM4 20-332)
T6 sequence: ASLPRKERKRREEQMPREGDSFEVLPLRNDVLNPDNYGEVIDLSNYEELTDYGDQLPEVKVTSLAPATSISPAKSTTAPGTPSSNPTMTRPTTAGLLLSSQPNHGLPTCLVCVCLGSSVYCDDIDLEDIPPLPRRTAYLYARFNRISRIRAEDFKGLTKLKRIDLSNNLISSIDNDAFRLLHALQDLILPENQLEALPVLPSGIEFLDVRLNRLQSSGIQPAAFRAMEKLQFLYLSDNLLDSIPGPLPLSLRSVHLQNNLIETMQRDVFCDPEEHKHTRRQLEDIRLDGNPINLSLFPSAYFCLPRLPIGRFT

SLITRK2 = target: T7, SLITRK2 (Homo sapiens (Human), UniProt Q9H156 22-621)
T7 sequence: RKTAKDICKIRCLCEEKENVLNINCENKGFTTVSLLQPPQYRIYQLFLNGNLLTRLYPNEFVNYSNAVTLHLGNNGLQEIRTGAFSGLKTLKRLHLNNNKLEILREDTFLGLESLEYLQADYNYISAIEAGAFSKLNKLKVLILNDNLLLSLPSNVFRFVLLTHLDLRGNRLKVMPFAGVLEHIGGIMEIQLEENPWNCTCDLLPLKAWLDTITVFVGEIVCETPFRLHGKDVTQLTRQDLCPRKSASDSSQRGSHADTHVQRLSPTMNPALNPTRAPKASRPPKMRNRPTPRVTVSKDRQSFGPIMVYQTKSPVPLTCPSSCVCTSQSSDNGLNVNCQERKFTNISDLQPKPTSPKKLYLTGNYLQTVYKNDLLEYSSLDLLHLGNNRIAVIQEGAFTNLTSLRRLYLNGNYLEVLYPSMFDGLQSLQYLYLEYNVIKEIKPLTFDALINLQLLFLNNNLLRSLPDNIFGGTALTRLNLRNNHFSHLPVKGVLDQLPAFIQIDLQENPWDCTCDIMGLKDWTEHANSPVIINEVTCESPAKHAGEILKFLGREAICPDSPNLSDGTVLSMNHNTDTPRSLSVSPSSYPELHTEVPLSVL

CFC1 = CFC1 (Homo sapiens (Human), UniProt P0CG37 26-158)
Chain of CFC1 (P0CG37 26-158 limits assumed): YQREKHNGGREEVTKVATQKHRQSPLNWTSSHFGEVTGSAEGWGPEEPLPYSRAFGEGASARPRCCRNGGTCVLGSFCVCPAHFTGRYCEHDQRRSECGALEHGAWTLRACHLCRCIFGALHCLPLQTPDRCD

TMEFF2 = target: T8, TMEFF2 (Homo sapiens (Human), UniProt Q9UIK5 41-320)
T8 sequence: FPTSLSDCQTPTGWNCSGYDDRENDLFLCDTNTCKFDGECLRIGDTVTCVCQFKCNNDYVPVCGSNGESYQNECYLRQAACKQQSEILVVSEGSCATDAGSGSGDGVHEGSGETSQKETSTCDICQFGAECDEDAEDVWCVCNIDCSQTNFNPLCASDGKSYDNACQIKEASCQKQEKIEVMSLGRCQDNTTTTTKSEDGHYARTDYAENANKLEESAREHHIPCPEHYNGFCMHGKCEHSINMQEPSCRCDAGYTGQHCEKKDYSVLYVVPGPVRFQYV

Measured: binding result

B1: PD1-41C9 (antibody, V domains shown)
VH: QMQLVESGGGVVQPGRSLRLSCAASGFTFSSYAMHWVRQAPGKGLEWVAVISYDGSNKYYADSVKGRFTISRDNSKNTLYLQMNRLRSEDTAVYYCTTTTFDSWGQGTLITVSS
VL: DIVMTQTPLSLPVTPGEAASISCRSSQSLLDSEDGNTYLDWYLQKPGQSPQLLIYTLSHRASGVPDRFSGSGSGTDFTLKISRVAAEDVGLYYCLQRMGFPYTFGQGTKLDIK
notes: scFv-phage in the screening ELISA; whole IgG in the other assays
no binding (tested: 1 ug/ml): all assays above

B2: PD1-49A2 (antibody, V domains shown)
VH: QVQLVESGGGVVQPGRSLRLSCAASGFTFSSYAMHWVRQAPGKGLEWVAVISYDGSNKYYADSVKGRFTISRDNPKNTLYLQMNSLRAEDTAVYYCTTTTFDSWGRGTLVTVSS
VL: DIVMTQSPLSLPVTPGEPASISCRSSQSLFDSDDGNTYLDWYLQKPGQSPQLLIYTLSHRASGVPDRFSGSGSGTDFTLKISRVEAEDVGIYYCLQRMGFPYTFGQGTKVEIK
notes: scFv-phage in the screening ELISA; whole IgG in the other assays; also called Parent 49A2
no binding (tested: 1 ug/ml): all assays above

B3: PD1-45D6 (antibody, V domains shown)
VH: QVQLVESGGGVVQPGRSLRLSCAASGFTFSSYAMHWVRQVPGKGLEWVAVISYDGNDKYYADSVKGRFTISRDNSKNTLYLQMNSLRAEDTAVYYCVPTTFEYWGQGSQVTVSS
VL: DIVMTQTPLSLPVTPGEAASISCRSSQSLLDSDDGKTYLDWYLQKPGQSPQLLIYTLSYRASGVPDRFSGSGSGTEFNLRISRVEAEDVGIYYCMQRVEFPFTFGQGTKLDIK
notes: as for B1
no binding (tested: 1 ug/ml): all assays above

Source: patent US20190248900A1 (Y BIOLOGICS, published 2019)
